± gives the uncertainty stated by the source.

A short description of this series: amyloid nucleation score (Sup35N fusion, yeast selection) (log enrichment); library NNK1; higher = more nucleation; inactive = no reads after selection. In short, it runs like this:
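Yeast lacking psi expressed peptides of 20 random codons fused to Sup35N, received 100 μM copper sulfate for 24 hours, and were then grown for 7 days at 30°C on medium lacking adenine and uracil. Illumina sequencing of input and output plasmid inserts provided the reads. Nucleation scores are DiMSum log enrichments of output over input, centred on the mode of non-aggregating sequences. Any sequence with under 100 input reads was excluded.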
Regarding HDLVKVFSFCVWP, the amyloid nucleation score worked out at 3.02 ± 0.19.
With HDQSYSHSGSNGFRQKNEAN the figure was 1.32 ± 0.5; with HDSAELDSRYNSASCVSLWL, -0.213 ± 1.1; with HDSTGHGEYVVGPEPFFPCA, 0.024 ± 0.4.
The value for HESLWKFESSFADKNRTVWN was 1.32 ± 0.45; that for HEYDLDKGTS was “inactive”; that for HFPSHLVLRETERFKQLHCG was 0.374 ± 0.62.
The value for HFSFLSVDKRHWAFGPLCRK was 7.358 ± 0.073; that for HFVGMMMKSGGFARLTYNKG was 0.443 ± 0.45; that for HGINET was 0.357 ± 0.48.
Consider HGKYQGTDRYAETGSISGGT, for which the amyloid nucleation score is -0.395 ± 0.37.
The value for HGPHYLLITGRGTRDNQSRD was -0.721 ± 0.65.
The value for HHIDPHDSFIS was 0.711 ± 0.93; that for HHKTFV was “inactive”.
In turn, HHLDPGQTHEIVSCSTWFTF yielded an amyloid nucleation score of -0.397 ± 0.29.
The substance HILGPLIRSMMIFSCLVSVV displayed an amyloid nucleation score of 1.29 ± 0.36.
With HIRLAQ the figure was 0.157 ± 0.76; with HISGLPVWLSCSWFWPKRLL, 0.08 ± 0.32; with HIVQRCFHVIYCSRVFYVLY, 0.386 ± 0.53.
With HKCVLELFSLIFLGGYFFLR, the amyloid nucleation score was 0.041 ± 0.45.
With HKNSTVKSVWQDLMSDVDVD the figure was -0.028 ± 0.43; with HLFRYSGTTSAV, 0.386 ± 0.53; with HLINLSDEIQYSYCNKRMVS, “inactive”.
The value for HLLNMNSDLRTHCYVVWT was -0.264 ± 0.25.
The value for HLLWETSMQRLMSHIFTSSR was 0.022 ± 0.43; that for HLMDSSYGSGSGCSTKTSCV was 0.061 ± 0.28.
Regarding HLSLGINVPTCFLSEKALLV, the amyloid nucleation score was found to be 1.25 ± 0.68.
The value for HLVGWESR was 0.476 ± 0.79.
With HLVRLTFVMLFGGNLWISS, the amyloid nucleation score came to 0.91 ± 0.26.
The value for HMLWNNVRIF was 0.09 ± 0.6.
As to HNCTTGVTFKSEIASILVQP, the amyloid nucleation score was -0.261 ± 0.4.
With HNGDCMITACNTGVLAGYIS the figure was 1.88 ± 0.26; with HNHADATQKKCGVQ, -0.112 ± 0.28.
The value for HNIAIAPARWCVSSIRSG was -0.53 ± 0.45; that for HNTSLYVTLNSSTR was 6.2 ± 0.09.
Substance HNVFDNLHMDSDKRMANSV registered an amyloid nucleation score of 0.428 ± 0.4.
The value for HNVQGRWFFRAHWMSYKHTI was 0.249 ± 0.62.
The value for HNWSCQVHRDINLDRGAKES was 1.79 ± 0.4.
In the case of HPIEWSKVSDNIRRQSGCCG, the amyloid nucleation score is 0.754 ± 0.33.
The value for HPLAAVSKLCRRSRLGLSSR was -0.124 ± 0.35; that for HPMKCFQANQFINIYRNDVA was 7.136 ± 0.059.
In the case of HPPNFVNVSW, the amyloid nucleation score was -0.023 ± 0.51.
With HQEAGLGSMVQTNAHATAKP the figure was -0.081 ± 1.
The value for HQIPCPFRSRLARPGHLLEI was -0.612 ± 1.
Take HRYYSYSWGLWLSTTWEYFS: the amyloid nucleation score result is “inactive”.
The value for HSATGQIGRALLTSSCVCL was “inactive”; that for HSCTTLPL was -0.461 ± 0.79.
With HSIDLGTFDGFFKIRLSSTT the figure was 0.598 ± 0.78; with HSLAGLGIIGRCAKLVQAQS, 0.48 ± 0.25.
The value for HSLGTCRFFVIAHSLK was 0.583 ± 0.69; that for HSLLWPLGFAQ was 0.184 ± 0.67.
In turn, HSWCMSSSSIKFVCLENDLL showed an amyloid nucleation score of 6.804 ± 0.061.
With HTQYSSRYGFMCSRWIVSGV the figure was 0.684 ± 0.7.
The value for HTSCRTVQHLKVWFPVK was 1.25 ± 0.74; that for HVCKRRFRFRGLTILCRFTL was -0.769 ± 1.1; that for HVGIDIAVTWLQVKRVAMAS was 0.037 ± 0.31.
HVRHNVYISVCEVARDKRRG: the amyloid nucleation score was 5.12 ± 0.08.
With HVSSSE the figure was -0.174 ± 1.1; with HVTKMNCPLCQVKLGNYPVY, -0.546 ± 0.49.
The value for HVTNSWNSKGLRTSSGDTNV was 0.305 ± 0.4.
With HWLRYGDRIHMDNYNTSFFV, the amyloid nucleation score amounted to 1.42 ± 0.12.
With HWMFFYRDIFCVCVNSFL the figure was 4.17 ± 0.085; with HWWVGKRLLLHPWVA, 0.224 ± 0.31; with HYACRRSVERSKRRGVRGSM, 0.039 ± 0.46.
The value for HYFPVIDQAICFDSFRPMPV was “inactive”.
With HYIVDLEQLQWDVWGIFSDS the figure was 0.058 ± 0.73.
Substance HYMRWIGLRTDTKGPRSGSG had an amyloid nucleation score of -0.578 ± 0.86.
The value for HYRSHSIGIRFAVSDWRIAF was 0.844 ± 0.46; that for HYTLIESSNRSANNEPQVTH was 0.353 ± 0.88; that for IAAVFHCKNSLMY was 2 ± 0.2.
The value for IACPYRHNGCNTRLRNINAV was -0.316 ± 0.42; that for IADGTLTVSL was 0.609 ± 0.32.
With IALNRMFSISLVFYDKGFWY the entry was “inactive”; with IAMKPENK, -0.997 ± 0.57; with IATFGVTMSNSWT, 2.84 ± 0.13.
Substance IATKGKDVVFVRCGPDPQL showed an amyloid nucleation score of 1.04 ± 0.53.
The value for IATYCYLFSCWFIYVLT was 0.992 ± 0.84.
With IAYDRRFIDLTRFIAIKFYI the figure was -0.021 ± 0.93.
The value for ICFCL was 7.772 ± 0.054.
In the case of ICGNSSTEASGL, the amyloid nucleation score was found to be 0.039 ± 0.56.
With ICICLMLSVIGSSSHVLLDW the figure was 1.08 ± 0.72.
The value for ICLYGACYFGVVWSKGGPGK was -0.634 ± 0.32; that for ICMKLLFEYLVPVLRQAH was -0.307 ± 1.2; that for ICSVRSTQVGEKTSLPWLCR was 0.371 ± 0.41.
With ICVLCC the figure was 1.15 ± 0.62.
On to ICVMS, for which the amyloid nucleation score entry is “inactive”.
With ICWRMKVMWPYRTIGSSLTF the figure was 1.02 ± 0.45; with IDCGSFSYKQSMQLMCKSAQ, -0.19 ± 0.28; with IDHPTVKLIRYSAIHIALVT, 0.093 ± 0.28.
The value for IDMLFPFCCVALRSHRSLEG was 0.722 ± 0.46; that for IEEPIYDSKHLPKMRSTGYT was 0.486 ± 0.35.
The value for IEGWHTRVHRRTLIVMCLIG was 1.09 ± 0.41; that for IEIIIASSGHHHYIKRDNVY was 0.652 ± 0.58; that for IEISDMSWFRPVMFNDAKEL was 1.44 ± 0.53.
As for IENSIGGMQLGVSISYMSGT, the amyloid nucleation score is 0.208 ± 0.41.
With IEWFVLGDYMCTAQSVCGLV the figure was -1.26 ± 1.3.
The value for IFCAPLTTSQIALRVYNRRL was 0.727 ± 0.88; that for IFDSFQATLCLGCLMLLSYF was 0.423 ± 0.44.
The value for IFHGWVTGCCLVDNLLFYCT was 5.42 ± 0.1.
Take IFMRSAERGMRVLLEDDCRT: the amyloid nucleation score came to 0.256 ± 0.61.
The substance IFNSEVVSSLIRVVSMNMEG yielded an amyloid nucleation score of 0.654 ± 0.21.
IFPCNFSGNYLRKVWFPVRY returned an amyloid nucleation score of 0.42 ± 0.91.
With IFSCGIGHWV the figure was 0.462 ± 0.49.
The value for IFSRSEEFVFFGHINSV was 1.68 ± 0.32.
The value for IFTRLSLSFHNLGLGWKTRV was -0.248 ± 0.38; that for IFVFWTALSTSHNGWGVPVM was “inactive”.
In turn, IFWGWSIQG had an amyloid nucleation score of 1.17 ± 0.58.
With IFYSSFS the entry was “inactive”; with IGAGL, -1.07 ± 2.4.
With IGAHFQSNLVIKVNSLEN the figure was 0.697 ± 0.63; with IGALTSHAHQNVCVCNLLKD, 0.307 ± 0.81.
IGDRKMSY returned an amyloid nucleation score of 0.145 ± 0.71.
The value for IGESVHKLSFWCDSGECF was 0.073 ± 0.31.
The value for IGGPYLVGSHKLKLWPWLES was -0.575 ± 0.34.
With IGLRWYSFLLRMSGLSSTGA the figure was -0.23 ± 0.24; with IGMQLMVKTSLRHYGMYHTA, 1.65 ± 0.44; with IGPGLSSR, -0.521 ± 0.63.
Consider IGSGYW, for which the amyloid nucleation score was -0.091 ± 0.52.
The value for IGSNK was -1.38 ± 0.86.
IGVCILTDRLHD: the amyloid nucleation score entry is “inactive”.
With IGYCKWGSDYGCESAT, the amyloid nucleation score worked out at 1.07 ± 0.93.
IGYCSSGQNDPNIASLYCFH registered an amyloid nucleation score of -1.19 ± 0.81.
The value for IHALLRQNMD was -0.599 ± 0.39; that for IHEMTSWVTCRFCGVFKYIL was 2.03 ± 0.13.
The value for IHHKD was -0.616 ± 0.24; that for IHWNWWIRLCGFPFAFYISG was 0.233 ± 0.32.
On to IICFVVISWTRFLMSQKCFC, for which the amyloid nucleation score was -0.143 ± 0.35.
The value for IICICLVIISFRFCFSIKFM was -2.57 ± 2.7; that for IIFGRGFFSHSGVRTNQCYT was -1.43 ± 1; that for IIFNEIIHMQFDNIGDV was 3.27 ± 0.17.
The value for IIIACFVSCNELVGVSVIKT was 0.037 ± 0.25; that for IILFNRILLV was “inactive”.
The value for IIRNVTL was 0.263 ± 0.24.
Regarding IISISINGSVRWSCTRSGAD, the amyloid nucleation score was 0.499 ± 0.53.
The value for IISRRCKML was 1.37 ± 0.5; that for IIVFGSLEELVGAGLLGRLR was -0.106 ± 1.7; that for IKMSSRYFMLGTLLSPGLEV was “inactive”.
The value for IKVQASQDP was 9.252 ± 0.05.
Substance ILAVLVTYIANTACSWYYVF came in with an amyloid nucleation score of 0.052 ± 0.64.
